{"source": "patent US20180044422A1", "about": "“TREATING SOLID TUMOR BY TARGETING DECTIN-1 SIGNALING” (New York University, priority 2016, published 2018)", "molecules": {"B1": {"name": "Galectin-4: recombinant Galectin-4 (Biolegend) coated on ELISA plates (protein, UniProt Q8K419 1-326, looked up)", "Galectin-4": "MAYVPAPGYQPTYNPTLPYKRPIPGGLSVGMSVYIQGMAKENMRRFHVNFAVGQDDGADVAFHFNPRFDGWDKVVFNTMQSGQWGKEEKKKSMPFQKGKHFELVFMVMPEHYKVVVNGNSFYEYGHRLPVQMVTHLQVDGDLELQSINFLGGQPAAAPYPGAMTIPAYPAGSPGYNPPQMNTLPVMTGPPVFNPRVPYVGALQGGLTVRRTIIIKGYVLPTARNFVINFKVGSSGDIALHLNPRIGDSVVRNSFMNGSWGAEERKVAYNPFGPGQFFDLSIRCGMDRFKVFANGQHLFDFSHRFQAFQMVDTLEINGDITLSYVQI"}, "B2": {"name": "Galectin-3: recombinant Galectin-3 (Biolegend) coated on ELISA plates (protein, UniProt P16110 2-264, looked up)", "Galectin-3": "ADSFSLNDALAGSGNPNPQGYPGAWGNQPGAGGYPGAAYPGAYPGQAPPGAYPGQAPPGAYPGQAPPSAYPGPTAPGAYPGPTAPGAYPGQPAPGAFPGQPGAPGAYPQCSGGYPAAGPYGVPAGPLTVPYDLPLPGGVMPRMLITIMGTVKPNANRIVLDFRRGNDVAFHFNPRFNENNRRVIVCNTKQDNNWGKEERQSAFPFESGKPFKIQVLVEADHFKVAVNDAHLLQYNHRMKNLREISQLGISGDITLTSANHAMI"}, "B3": {"name": "Galectin-9: recombinant Galectin-9 (R&D Systems), lectin identified as Dectin-1 ligand (protein)", "chain": "MALFSAQSPYINPIIPFTGPIQGGLQEGLQVTLQGTTKSFAQRFVVNFQNSFNGNDIAFHFNPRFEEGGYVVCNTKQNGQWGPEERKMQMPFQKGMPEFELCFLVQRSEFKVMVNKKFVQYQHRVPYHLVDTIAVSGCLKLSFITFQNSAAPVQHVFSTVQFSQPVQFPRTPKGRKQKTQNFRPAHQAPMAQTTIHMVHSTPGQMFSTPGIPPVVYPTPAYTIPFYTPIPNGLYPSKSIMISGNVLPDATRFHINLRCGGDIAFHLNPRFNENAVVRNTQINNSWGQEERSLLGRMPFSRGQSFSVWIICEGHCFKVAVNGQHMCEYYHRLKNLQDINTLEVAGDIQLTHVQT"}, "B4": {"name": "IL-12: cytokine added to BMDM cultures (protein, UniProt P43431 23-215; P43432 23-335, looked up)", "Interleukin-12 subunit alpha": "RVIPVSGPARCLSQSRNLLKTTDDMVKTAREKLKHYSCTAEDIDHEDITRDQTSTLKTCLPLELHKNESCLATRETSSTTRGSCLPPQKTSLMMTLCLGSIYEDLKMYQTEFQAINAALQNHNHQQIILDKGMLVAIDELMQSLNHNGETLRQKPPVGEADPYRVKMKLCILLHAFSTRVVTINRVMGYLSSA", "Interleukin-12 subunit beta": "MWELEKDVYVVEVDWTPDAPGETVNLTCDTPEEDDITWTSDQRHGVIGSGKTLTITVKEFLDAGQYTCHKGGETLSHSHLLLHKKENGIWSTEILKNFKNKTFLKCEAPNYSGRFTCSWLVQRNMDLKFNIKSSSSSPDSRAVTCGMASLSAEKVTLDQRDYEKYSVSCQEDVTCPTAEETLPIELALEARQQNKYENYSTSFFIRDIIKPDPPKNLQMKPLKNSQVEVSWEYPDSWSTPHSYFSLKFFVRIQRKKEKMKETEEGCNQKGAFLVEKTSTEVQCKGGNVCVQAQDRYYNSSCSKWACVPCRVRS"}}, "key": {"murine Dectin-1": {"target": "T1, murine Dectin-1 (Mus musculus, UniProt Q6QLQ4)", "T1 construct": "purchased InvivoGen fc-mdec1a", "T1 sequence (Q6QLQ4 71-244 limits assumed)": "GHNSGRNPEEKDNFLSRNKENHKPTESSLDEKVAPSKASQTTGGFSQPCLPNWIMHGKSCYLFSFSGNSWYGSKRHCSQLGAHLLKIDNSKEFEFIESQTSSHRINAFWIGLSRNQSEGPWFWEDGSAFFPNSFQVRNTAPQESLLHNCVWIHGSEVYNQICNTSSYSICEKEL", "test": "Galectin-coated ELISA with murine Dectin-1 IgG Fc", "assay_type": "binding", "settings": "galectin-coated plates; Galectin-3/-4/-9 comparison at 2.5 μg/ml Dectin-1 IgG Fc", "experimental": "(§1) To investigate if Galectin-9 can bind with Dectin-1, Protein G-magnet beads (2 ml; Dynabeads) were loaded with Dectin-1 IgG Fc (1 mg) or control IgG Fc before washing and blocking. Subsequently, beads were incubated with recombinant Galectin-9 ([…]; R&D Systems) for 30 min, washed, and stained with PE-conjugated anti-Galectin-9 (Biolegend, San Diego Calif.). Galectin-9 specific staining was determined by flow cytometry. To investigate the interaction between Galectin-9 and Dectin-1 by ELISA, plates (Maxisorp, Nunc, St. Louis, Mo.) were coated with recombinant mouse Galectin-9 ([…]; R&D Systems, Minneapolis, Minn.), Galectin-3, or Galectin-4 (both […]; Biolegend) for 16 hours at 4° C., blocked with 1% BSA/PBS for 1 hour, and incubated with increasing doses of Dectin-1 IgG Fc or control IgG Fc for 2 hours. The Galectin-bound Dectin-1 IgG Fc was detected with anti-IgG-HRP. For affinity precipitation experiments, protein G-beads were loaded with Dectin-1 IgG Fc and were then incubated with the extract of 6 month old KC pancreata. Bead-bound precipitates were resuspended with loading buffer, resolved by SDS-PAGE under reduced conditions for western blotting using mAbs specific for Galectin-9. To determine whether Galectin-9 induces Dectin-1 signaling, the Dectin-1 reporter HEK293 cell line^16 (Invivogen) was treated with recombinant Galectin-9 (1-10 μg/ml; R&D Systems), d-Zymosan (1-10 μg/ml), or Curdlan (10-100 μg/ml; both Invivogen). Dectin-1 signaling was measured by detection of secreted embryonic alkaline phosphatase. In other experiments, WT and Dectin-1^−/− splenic macrophages were treated in vitro with recombinant Galectin-9 (10 ug/ml). Syk phosphorylation was measured by flow cytometry at 3 hours.\n(§2) Non-pathogen derived Dectin-1 ligands have not been well-characterized. […] Bead-IgG Fc complexes were incubated with recombinant Galectin-9 and then labeled with a fluorescently-conjugated αGalectin-9 mAb and tested for fluorescence by flow cytometry. […]"}, "Dectin-1 [1]": {"tested_on": "Dectin-1", "test": "Syk phosphorylation in WT and Dectin-1-/- macrophages", "assay_type": "cell-based, mouse", "settings": "10 ug/ml for 3 hours, WT vs Dectin-1-/- macrophages, flow cytometry", "experimental": "as §1, with “To determine whether Galectin-9 induces Dectin-1 signaling, the Dectin-1 reporter HEK293 cell line^16 (Invivogen) was treated with recombinant Galectin-9 (1-10 μg/ml; R&D Systems), d-Zymosan (1-10 μg/ml), or Curdlan (10-100 μg/ml; both Invivogen).” left out, “In other experiments, WT and Dectin-1^−/− splenic macrophages were treated in vitro with recombinant Galectin-9 (10 ug/ml).” left out"}, "human Dectin-1": {"tested_on": "human Dectin-1", "sequence (Q9BXN2 114-247 limits assumed)": "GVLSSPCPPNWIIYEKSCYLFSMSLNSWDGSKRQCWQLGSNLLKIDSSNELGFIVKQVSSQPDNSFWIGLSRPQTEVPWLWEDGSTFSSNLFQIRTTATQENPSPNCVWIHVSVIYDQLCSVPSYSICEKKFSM", "test": "Galectin-9-coated ELISA with human Dectin-1 IgG Fc", "assay_type": "binding", "settings": "Galectin-9 coated plates, increasing doses", "experimental": "(§3) To investigate if Galectin-9 can bind with Dectin-1, Protein G-magnet beads (2 ml; Dynabeads) were loaded with Dectin-1 IgG Fc (1 mg) or control IgG Fc before washing and blocking. Subsequently, beads were incubated with recombinant Galectin-9 ([…]; R&D Systems) for 30 min, washed, and stained with PE-conjugated anti-Galectin-9 (Biolegend, San Diego Calif.). Galectin-9 specific staining was determined by flow cytometry. To investigate the interaction between Galectin-9 and Dectin-1 by ELISA, plates (Maxisorp, Nunc, St. Louis, Mo.) were coated with recombinant mouse Galectin-9 ([…]; R&D Systems, Minneapolis, Minn.), Galectin-3, or Galectin-4 (both […]; Biolegend) for 16 hours at 4° C., blocked with 1% BSA/PBS for 1 hour, and incubated with increasing doses of Dectin-1 IgG Fc or control IgG Fc for 2 hours. The Galectin-bound Dectin-1 IgG Fc was detected with anti-IgG-HRP. […] Dectin-1 signaling was measured by detection of secreted embryonic alkaline phosphatase. […] Syk phosphorylation was measured by flow cytometry at 3 hours.\nas §2"}, "Dectin-1 IgG Fc": {"target": "T2, Dectin-1 IgG Fc (Mus musculus, UniProt Q6QLQ4)", "T2 construct": "purchased InvivoGen fc-mdec1a", "T2 sequence (Q6QLQ4 71-244 limits assumed)": "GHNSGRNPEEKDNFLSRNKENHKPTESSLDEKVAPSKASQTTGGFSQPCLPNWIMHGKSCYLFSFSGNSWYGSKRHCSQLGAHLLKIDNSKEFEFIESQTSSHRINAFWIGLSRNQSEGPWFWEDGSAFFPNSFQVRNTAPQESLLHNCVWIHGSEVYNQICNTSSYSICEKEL", "test": "Protein G bead / flow cytometry Galectin-9-Dectin-1 binding", "settings": "recombinant Galectin-9, flow cytometry", "experimental": "as §3, §2"}, "Dectin-1 [2]": {"tested_on": "Dectin-1", "test": "Dectin-1 reporter HEK293 cell line (secreted embryonic alkaline phosphatase)", "assay_type": "cell-based", "settings": "low and high doses (1-10 μg/ml)", "experimental": "as §1, with “To determine whether Galectin-9 induces Dectin-1 signaling, the Dectin-1 reporter HEK293 cell line^16 (Invivogen) was treated with recombinant Galectin-9 (1-10 μg/ml; R&D Systems), d-Zymosan (1-10 μg/ml), or Curdlan (10-100 μg/ml; both Invivogen).” left out, “In other experiments, WT and Dectin-1^−/− splenic macrophages were treated in vitro with recombinant Galectin-9 (10 ug/ml).” left out"}, "[3]": {"tested_on": "bone-marrow derived macrophages (BMDM)", "test": "Dectin-1 expression in bone-marrow derived macrophages", "assay_type": "cell-based, mouse", "settings": "cytokine added to day 8 BMDM cultures for 24h"}}, "data": [{"molecule": "B1", "values": [{"measurement": "binding of murine Dectin-1 IgG Fc on ELISA", "setting": "murine Dectin-1", "value": "did not avidly bind"}]}, {"molecule": "B2", "values": [{"measurement": "binding of murine Dectin-1 IgG Fc on ELISA", "setting": "murine Dectin-1", "value": "did not avidly bind"}]}, {"molecule": "B3", "values": [{"measurement": "Syk phosphorylation", "setting": "Dectin-1 [1]", "value": "activated Syk in a Dectin-1-dependent manner"}, {"measurement": "binding of murine Dectin-1 IgG Fc on ELISA", "setting": "murine Dectin-1", "value": "dose-dependent manner"}, {"measurement": "binding of human Dectin-1 IgG Fc on ELISA", "setting": "human Dectin-1", "value": "dose-dependent manner"}, {"measurement": "binding to bead-bound Dectin-1 IgG Fc", "setting": "Dectin-1 IgG Fc", "value": "avidly ligated"}, {"measurement": "Dectin-1 activation (NF-κB signaling) in reporter cells", "setting": "Dectin-1 [2]", "value": "induced NF-κB signaling"}]}, {"molecule": "B4", "values": [{"measurement": "Dectin-1 expression in BMDM", "setting": "[3]", "value": "did not influence Dectin-1 expression"}]}]}
